Measured values reported in patent US20180335429.

Biological target: T1, MMP substrate, 5-FAM-GGPLGVRGKK(CPQ2)-PEG2-C, presented on the iron-oxide nanoparticle (ABN) surface (not fully specified)
T1 chain: GGPLGVRGKKC

B1: mouse MMP9 (protein)
chain: APYQRQPTFVVFPKDLKTSNLTDTQLAEAYLYRYGYTRAAQMMGEKQSLRPALLMLQKQLSLPQTGELDSQTLKAIRTPRCGVPDVGRFQTFKGLKWDHHNITYWIQNYSEDLPRDMIDDAFARAFAVWGEVAPLTFTRVYGPEADIVIQFGVAEHGDGYPFDGKDGLLAHAFPPGAGVQGDAHFDDDELWSLGKGVVIPTYYGNSNGAPCHFPFTFEGRSYSACTTDGRNDGTPWCSTTADYDKDGKFGFCPSERLYTEHGNGEGKPCVFPFIFEGRSYSACTTKGRSDGYRWCATTANYDQDKLYGFCPTRVDATVVGGNSAGELCVFPFVFLGKQYSSCTSDGRRDGRLWCATTSNFDTDKKWGFCPDQGYSLFLVAAHEFGHALGLDHSSVPEALMYPLYSYLEGFPLNKDDIDGIQYLYGRGSKPDPRPPATTTTEPQPTAPPTMCPTIPPTAYPTVGPTVGPTGAPSPGPTSSPSPGPTGAPSPGPTAPPTAGSSEASTESLSPADNPCNVDVFDAIAEIQGALHFFKDGWYWKFLNHRGSPLQGPFLTARTWPALPATLDSAFEDPQTKRVFFFSGRQMWVYTGKTVLGPRSLDKLGLGPEVTHVSGLLPRRLGKALLFSKGRVWRFDLKSQKVDPQSVIRVDKEFSGVPWNSHDIFQYQDKAYFCHGKFFWRVSFQNEVNKVDHEVNQVDDVGYVTYDLLQCP
  cleavage of the substrate: it was confirmed that mouse MMP9 cleaves the ABN MMP9 substrate
